# In patent publication US20120277143A1 (Janssen / Centocor, published 2012):
# B1: C06_44C12v2 (designed binder)
# chain: DLGKKLLEAASAGQDDEVHILMANGADVNALDDSGYTPLHLAAEDGHLEIVEVLLKHGADVNAADRLGDTPLHLAAFVGHLEIVEVLLKAGADVNAVDLAGVTPLHVAAFYGHLEIVEVLLKAGADVNAQDKFGKTAFDISIDNGNEDLAEILQKLN
# B2: C06_28E5 (designed binder)
# chain: DLGKKLLEAARAGQDDEVRILMANGADVNAADDSGITPLHLAAEDGHLEIVEVLLKYGADVNAQDNLGDTPLHLAAWTGHLEIVEVLLKNGADVNAYDISGITPLHLAAFYGHLEIVEVLLKHGADVNAQDKFGKTAFDISIDNGNEDLAEILQKLN
# notes: ankyrin repeat protein; His-tagged, IMAC-purified; also called benchmark AR protein
# B3: 11G11-21H2 (designed binder)
# chain: MRGSHHHHHHGSDLGKKLMEAARAGQDDEVRILMANGADVNAKDLFGITPLHLAAVYGHLEIVEVLLKHGADVNATDNWGSTPLHLAAQFGHLEIVEVLLKYGADVNAQDKFGKTAFDISIDNGNEDLAEILQKLGGGGSGGGGSGGGGSGGGGSRSDLGEKLLEAARAGQDDEVRILMANGADVNAYDDDGMTPLHLAAKSGHLEIVEVLLKHGADVNAMDITGSAPLHLAADLGHLEIVEVLLKHGADVNAIDYLGATPLHLAATYGHPEIVEVLLKYGADVNAQDKFGKTAFDISIDNGNEDLAEILQKLN
# B4: C06-21H2 (designed binder)
# chain: DLGEKLLEAARAGQDDEVRILMANGADVNAYDDDGMTPLHLAAKSGHLEIVEVLLKHGADVNAMDITGSAPLHLAADLGHLEIVEVLLKHGADVNAIDYLGATPLHLAATYGHPEIVEVLLKYGADVNAQDKFGKTAFDISIDNGNEDLAEILQKLN
# What was measured:
# human IL4 [1] = biological target: T1, human IL4 (human, UniProt P05112 25-153, biotinylated in the SPR and competition assays (sites not given)); assay: cell-based or functional assay
# T1 sequence: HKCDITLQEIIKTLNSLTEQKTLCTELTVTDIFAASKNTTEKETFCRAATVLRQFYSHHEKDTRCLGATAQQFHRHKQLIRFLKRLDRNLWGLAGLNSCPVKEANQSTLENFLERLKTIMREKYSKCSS
# human IL4 [2] = biological target: T1, human IL4; assay: binding to recombinant IL4; kinetic method not restated
# human IL4 [3] = biological target: T1, human IL4; assay: cell-based or functional assay; remark: listed apart in the source
# human IL4 [4] = biological target: T1, human IL4; assay: SPR ProteOn, biotin-IL4 on neutravidin chip, 1:1 fit
# Method: Purified binders selected as “hits” were ranked by their affinity on a ProteOn XPR-36 instrument (Bio-Rad). ProteOn is an optical biosensor instrument that measures protein-protein interactions in real time, based on Surface Plasmon Resonance technology similar to Biacore (GE). A rapid experimental protocol was performed as follows: On a GLC sensor chip (Bio-Rad), Neutravidin (Thermo Scientific) was covalently immobilized to a density of >5000 RU using amine coupling chemistry as described by the manufacturer. On one flow cell, biotinylated IL4 (Peprotech) was immobilized to a level of 250 RU, while another flow cell was used as reference, with neutravidin immobilized only. […] The retrieved values were used to rank the AR proteins by their affinity.
# human IL4 [5] = biological target: T1, human IL4; assay: cell-based or functional assay; remark: listed apart in the source
# human IL4 [6] = biological target: T1, human IL4; assay: Luminex competition, 67 pM biotin-IL4 binding to IL4RA-Fc beads
# Method: For biotinylation of IL4, recombinant human IL4 (Peprotech) was biotinylated at a 4:1 ratio using EZ-Link NHS-LC-Biotin (Pierce, #21336) for 2 hours at RT. The protein was dialyzed in PBS overnight to remove excess biotinylation reagent. Competition binding for cynomologous IL4 (SEQ ID NO: 5) was performed using the isolated protein biotinylated in the same manner.
# AR protein inhibition of IL4 binding to IL4 RA was assessed using IL4 RA-Fc (R&D Systems), comprising the Gly24-His232 which represents the ECD (SEQ ID NO: 5) fused to a human IgGl-Fc and therefor a disulfide linked homodimer. The protein was conjugated to carboxylated Luminex microspheres according to the manufacturer's protocol. For neutralization experiments, 5000 IL4RA-Fc conjugated beads in 50 μl were added to each well of a 96-well filter plate (Millipore). Biotinylated human IL4 was mixed with an appropriate dilution of AR protein in Luminex Assay Buffer (PBS, 1% BSA, pH 7.4) to give a final concentration of 67 pM IL4. The plate was incubated for 1 hour at RT in the dark on a plate shaker, set to shake vigorously to avoid bead aggregation. The plate was washed twice with 150 μl of wash buffer (PBS, 0.1% BSA, pH 7.4, 0.05% Tween-20) using a vacuum manifold followed by the addition of 50 μl of Streptavidin PE at 25 μg/ml and incubated at RT for 20 minutes. The plates were washed again and 150 μl of sheath fluid was added and the plate was placed on the shaker for 5 minute. Plates were read using a Luminex® 100 system; data were plotted as a function of AR protein concentration. IC₅₀ values were determined by fitting the data to the equation for sigmoidal dose response using PRISM software (GraphPAD PRISM) (Table 6).
# murine IL4 [7] = biological target: T2, murine IL4 (mouse, UniProt P07750 21-140); assay: cell-based or functional assay
# T2 sequence (looked up): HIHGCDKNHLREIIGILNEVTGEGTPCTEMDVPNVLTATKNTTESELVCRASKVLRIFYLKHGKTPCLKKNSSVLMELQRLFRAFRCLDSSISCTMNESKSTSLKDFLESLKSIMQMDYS
# murine IL13 = biological target: T3, murine IL13 (mouse, UniProt P20109 21-131, limits assumed); assay: cell-based or functional assay
# T3 sequence (looked up): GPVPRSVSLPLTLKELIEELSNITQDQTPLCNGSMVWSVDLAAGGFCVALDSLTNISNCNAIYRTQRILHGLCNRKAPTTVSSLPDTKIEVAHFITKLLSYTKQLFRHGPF
# murine IL4 [8] = biological target: T2, murine IL4; assay: affinity for mIL4, method and numbers not given
binder,measurement,setting,value
B1,IC50 STAT6,human IL4 [1],0.0069 nM
same,Kd,human IL4 [2],0.0016 nM
B2,A549 TARC Inhibition IC50,human IL4 [3],0.174 nM
same,HEK Stat6 Inhibition IC50,human IL4 [3],0.0014 nM
same,Type 1 Complex inhibition IC50,human IL4 [3],0.0015 nM
same,Kd,human IL4 [4],0.05 nM
same,koff,human IL4 [4],4.61e-05 s⁻¹
same,kon,human IL4 [4],922000 M⁻¹ s⁻¹
same,"inhibition of STAT6 (HEK-STAT6 cells), IC50",human IL4 [5],0.003 nM
same,IC50,human IL4 [6],0.0102 nM
B3,"IC50 (read off the curve); IL4 dependent HT2 proliferation assay, retentate sample (diamonds, solid line)",murine IL4 [7],~0.04 nM
same,"IC50 (read off the curve); IL13 STAT6 activation assay, aerosolized sample (triangles)",murine IL13,~2 nM
same,"IC50 (read off the curve); IL13 STAT6 activation assay, pre-nebulization sample (squares)",murine IL13,~1 nM
same,"IC50 (read off the curve); IL13 STAT6 activation assay, retentate sample (diamonds)",murine IL13,~1 nM
B4,binding result,murine IL4 [8],binds
